From doi:10.1101/2020.03.16.993188 (bioRxiv, 2020)
Where two headings read alike, the source gives them in different places.

B1: Synechocystis sp. PCC 6803 GCS T-protein (aminomethyltransferase), recombinant (enzyme)
chain: MANLFPALRTPLYNLITEQTTKLTTFGGWEMPVQFAGLKQEHQAVREKVGMFDISHMGKFVLTGQKVLAALQSLVPSDLDRLTPGKAQYTVLLNAQGGIIDDIIVYDQGKNPEGQERVTLIVNAATTVKDKQWLLEHLPEEIDFQDLSREKVLIALQGPEALTILQPLVDQNLGELPAFGHLEAEFLREKAFIARTGYTGEDGFEIMVSPEVGKQLWQTFGSKGVTPCGLGARDTLRLEAGMGLYGQDMNDETTPLEAGLGWLVHLDSKGDFIGRAVLTEQKANGVEKRLVGLEMLAKQIARHDYPILHNGEIMGIVTSGTLSPTLQKAIALGYVPTELAKVGQELEVEVRGKTYGIKVVKKLFYRSEQKPR
B2: Synechocystis sp. PCC 6803 GCS P-protein (glycine decarboxylase), recombinant (enzyme)
chain: MPNLEPAVVVPTSEAIAVDLTKLEEKLAPADSFLDRHLGPGETEQRQMLQTLGFDTLGDLIDQAVPPAIRFPRSLQLPASQSEYGAIAQLKSIASKNQVFRSYIGMGYYDTITPPVIQRNILENPGWYTAYTPYQAEIAQGRLEALLNFQTMVMDLTGLEIANASLLDEGTAAAEAMALSYGVSKSKANAFFVAQDCHPQTIEVIKTRANPLGIEVIVGDHHTFSFSTSIFGALLQYPATDGAVYDYRSFIDKAHQHQALVTLAADPLSLTLLTPPGELGADIAVGSTQRFGIPLGYGGPHAAYFATKAEYQRKMPGRIVGVSKDAHGNPALRLALQTREQHIRRDKATSNICTAQVLLAVMASMYGVYHGSTGLKNIALRIHQLTVLLAIGLKRLNYSLNNDYFFDTLRVGVGEQSAPAILKAAEGRGINLRPLVPGEVGISLDETVTVQDLLDLWQVFAGKDNLPFTPEELWSEVKTSFPADLTRQSLYLQDAVFNQYHSETELLRYLHQLESKDLALNTSMIPLGSCTMKLNATAEMMPVTWPEFGKIHPFAPAGQTEGYQILFAQLEAWLGEITGFDAISLQPNAGSQGEYAGLQVIRQYHLSRGEEQRNICLIPESAHGTNPASAVMCGMQVVPVKCDGEGNIDVEDLTSKAEKYGDRLAALMVTYPSTHGVFEATIGTICDIVHRFGGEVYMDGANMNAQVGLCRPADFGADVCHLNLHKTFCIPHGGGGPGMGPIGVKSHLQAFLPRTSLNSTAELQAEDQSIGMISAAPYGSASILVISWMYIAMMGPQGLTKATEVAILSANYMAKRLENYYPILFRGNNELVAHECILDLRPLKKQAAIEVEDVAKRLMDFGFHAPTVSWPVLGTMMVEPTESESLGELDRFCDAMIAIYQEAQAITHGEIDPADNPLKNAPHTAQSLICGEWNHPYSQEEAAYPAPWTKQFKFWPAVGRINNTYGDRHLVCSCEGMEAYKEG
B3: Synechocystis sp. PCC 6803 GCS L-protein (dihydrolipoamide dehydrogenase), recombinant (enzyme)
chain: MSQDFDYDLVIIGAGVGGHGAALHAVKCGLKTAIIEAKDMGGTCVNRGCIPSKALLAASGRVREMSDQDHLQQLGIQINGVTFTREAIAAHANDLVSKIQSDLTNSLTRLKVDTIRGWGKVSGPQEVTVIGDNETRILKAKEIMLCPGSVPFVPPGIEIDHKTVFTSDEAVKLETLPQWIAIIGSGYIGLEFSDVYTALGCEVTMIEALPDLMPGFDPEIAKIAERVLIKSRDIETYTGVFATKIKAGSPVEIELTDAKTKEVIDTLEVDACLVATGRIPATKNLGLETVGVETDRRGFIEVNDQMQVIKDGKPVPHLWAVGDATGKMMLAHAASGQGVVAVENICGRKTEVDYRAIPAAAFTHPEISYVGLTEAQAKELGEKEGFVVSTAKTYFKGNSKALAEKETDGIAKVVYRQDTGELLGAHIIGIHASDLIQEAAQAIADRKSVRELAFHVHAHPTLSEVLDEAYKRAV

Tests used:
[1] = target: B3; assay: molecular mass cut-off filtration
[2] = target: B2; assay: molecular mass cut-off filtration
native gel or EMSA = target: the molecule itself; assay: native gel or EMSA
SEC [3] = target: the molecule itself; assay: SEC
SEC [4] = target: the molecule itself; assay: SEC; remark: listed apart in the source
[5] = target: B1; assay: SEC
[6] = target: B1; assay: SEC; remark: listed apart in the source

| Binder | stoichiometry N [1] | binding result [2] | binding result (native gel or EMSA) | stoichiometry N (SEC [3]) | stoichiometry N (SEC [4]) | stoichiometry N [5] | stoichiometry N [6] |
| --- | --- | --- | --- | --- | --- | --- | --- |
| B1 | ~3 T per L2 dimer | binds | binds |  |  |  |  |
| B2 | ~0.25 P2 dimer per L2 dimer |  |  | 2 |  |  |  |
| Synechocystis sp. PCC 6803 GCS H-protein, recombinant, lipoylated holoprotein (natural protein, lipoyl cofactor on the lipoyl-binding lysine (full lipoylation confirmed by native PAGE); residue number not given) MELEHPDDLYYLDSHEYVRFDGETATIGLSAFAVDELGDIVFVELPEEGDKVEFEQSMGAVESVKAASDLYSPVTGTVIEKNSALEDQPELLNQDPYGEEGWLIKVRLDDVEDAKEGLMAAGDYRATLETGD | ~26 H per L2 dimer | binds |  | ~4 | 2 | ~2 H per T | ~4 H per T |
| B3 |  |  |  | 2 |  |  |  |
